Measurements taken from publication doi:10.1101/2022.05.02.490369.

Biological target: RPP1^TIR (residue 83-254) (Arabidopsis) (UniProt F4J339)
Assay: crystal structure

RPP1^TIR (residue 83-254) (from UniProt F4J339 83-254) (domain or fragment)
stoichiometry N: 4
